Patent publication US20220332824A1 (NANJING GENSCRIPT BIOTECH, published 2022)
Changes are numbered by the printed parent chain.

B1: bispecific antibody PD1a-E-HN (bispecific antibody, human IgG4 S228P, kappa)
heavy: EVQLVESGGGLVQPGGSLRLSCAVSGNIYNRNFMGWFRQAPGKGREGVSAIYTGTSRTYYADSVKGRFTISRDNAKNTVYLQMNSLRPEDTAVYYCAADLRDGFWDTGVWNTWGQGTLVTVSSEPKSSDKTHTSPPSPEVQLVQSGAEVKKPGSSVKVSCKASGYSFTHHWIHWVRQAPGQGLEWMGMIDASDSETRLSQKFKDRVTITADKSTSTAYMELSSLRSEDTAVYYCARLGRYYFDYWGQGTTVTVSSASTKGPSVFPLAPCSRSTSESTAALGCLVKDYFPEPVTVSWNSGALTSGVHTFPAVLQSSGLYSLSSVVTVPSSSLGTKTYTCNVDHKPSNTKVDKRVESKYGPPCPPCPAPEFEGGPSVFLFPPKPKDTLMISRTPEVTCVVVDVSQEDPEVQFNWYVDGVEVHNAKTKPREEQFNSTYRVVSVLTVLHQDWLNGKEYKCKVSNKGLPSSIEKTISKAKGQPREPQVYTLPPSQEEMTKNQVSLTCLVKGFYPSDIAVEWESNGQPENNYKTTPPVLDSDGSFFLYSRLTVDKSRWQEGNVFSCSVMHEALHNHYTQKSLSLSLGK
light: EIVLTQSPATLSLSPGERATLSCRASENVGTYISWYQQKPGQAPRLLIYGASNRYTGIPARFSGSGSGTDFTLTISSLEPEDFAVYYCGESYGHLYTFGGGTKVEIKRTVAAPSVFIFPPSDEQLKSGTASVVCLLNNFYPREAKVQWKVDNALQSGNSQESVTEQDSKDSTYSLSSTLTLSKADYEKHKVYACEVTHQGLSSPVTKSFNRGEC
notes: PD1a sdAb fused by the E-linker to the N-terminus of heavy chain H0; also called H3 + L0
B2: bispecific antibody PD1a-G15-HC (bispecific antibody, human IgG4 S228P, kappa)
heavy: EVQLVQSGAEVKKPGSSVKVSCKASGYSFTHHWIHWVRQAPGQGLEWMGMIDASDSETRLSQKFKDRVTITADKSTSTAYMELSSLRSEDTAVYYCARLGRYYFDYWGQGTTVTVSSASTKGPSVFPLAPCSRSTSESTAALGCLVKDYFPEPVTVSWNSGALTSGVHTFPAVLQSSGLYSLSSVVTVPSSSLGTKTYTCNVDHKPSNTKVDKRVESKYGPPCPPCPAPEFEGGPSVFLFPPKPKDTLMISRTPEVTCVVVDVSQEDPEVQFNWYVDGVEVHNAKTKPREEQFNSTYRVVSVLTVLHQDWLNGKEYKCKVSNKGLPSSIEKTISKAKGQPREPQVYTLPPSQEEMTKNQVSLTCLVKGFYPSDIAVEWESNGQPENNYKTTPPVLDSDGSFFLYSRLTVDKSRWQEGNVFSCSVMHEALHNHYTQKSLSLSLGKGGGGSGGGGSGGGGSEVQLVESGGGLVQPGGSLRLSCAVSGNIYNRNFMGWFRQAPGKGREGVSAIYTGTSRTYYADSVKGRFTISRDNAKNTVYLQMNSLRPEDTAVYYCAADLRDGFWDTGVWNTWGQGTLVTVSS
light: B1 light
notes: PD1a sdAb fused by the G15-linker to the C-terminus of heavy chain H0; also called H5 + L0
B3: bispecific antibody PD1a-E-HC (bispecific antibody, human IgG4 S228P, kappa)
heavy: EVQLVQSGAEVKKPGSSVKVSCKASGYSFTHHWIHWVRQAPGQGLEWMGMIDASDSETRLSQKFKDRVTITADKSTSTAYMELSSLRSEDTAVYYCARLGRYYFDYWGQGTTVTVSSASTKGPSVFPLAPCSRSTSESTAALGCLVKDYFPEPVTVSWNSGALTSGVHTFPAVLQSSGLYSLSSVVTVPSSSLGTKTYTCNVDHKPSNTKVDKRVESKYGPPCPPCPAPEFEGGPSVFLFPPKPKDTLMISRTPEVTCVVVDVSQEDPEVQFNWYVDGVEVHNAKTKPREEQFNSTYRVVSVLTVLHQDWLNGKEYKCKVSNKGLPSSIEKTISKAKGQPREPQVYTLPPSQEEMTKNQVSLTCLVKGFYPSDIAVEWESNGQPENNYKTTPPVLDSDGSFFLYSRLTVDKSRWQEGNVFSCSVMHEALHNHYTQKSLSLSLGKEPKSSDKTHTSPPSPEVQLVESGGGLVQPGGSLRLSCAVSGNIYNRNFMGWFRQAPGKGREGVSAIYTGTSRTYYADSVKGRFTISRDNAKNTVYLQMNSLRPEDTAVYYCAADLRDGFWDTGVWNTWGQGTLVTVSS
light: B1 light
notes: PD1a sdAb fused by the E-linker to the C-terminus of heavy chain H0; also called H1 + L0
B4: bispecific antibody PD1b-E-HC (bispecific antibody, human IgG4 S228P, kappa)
heavy: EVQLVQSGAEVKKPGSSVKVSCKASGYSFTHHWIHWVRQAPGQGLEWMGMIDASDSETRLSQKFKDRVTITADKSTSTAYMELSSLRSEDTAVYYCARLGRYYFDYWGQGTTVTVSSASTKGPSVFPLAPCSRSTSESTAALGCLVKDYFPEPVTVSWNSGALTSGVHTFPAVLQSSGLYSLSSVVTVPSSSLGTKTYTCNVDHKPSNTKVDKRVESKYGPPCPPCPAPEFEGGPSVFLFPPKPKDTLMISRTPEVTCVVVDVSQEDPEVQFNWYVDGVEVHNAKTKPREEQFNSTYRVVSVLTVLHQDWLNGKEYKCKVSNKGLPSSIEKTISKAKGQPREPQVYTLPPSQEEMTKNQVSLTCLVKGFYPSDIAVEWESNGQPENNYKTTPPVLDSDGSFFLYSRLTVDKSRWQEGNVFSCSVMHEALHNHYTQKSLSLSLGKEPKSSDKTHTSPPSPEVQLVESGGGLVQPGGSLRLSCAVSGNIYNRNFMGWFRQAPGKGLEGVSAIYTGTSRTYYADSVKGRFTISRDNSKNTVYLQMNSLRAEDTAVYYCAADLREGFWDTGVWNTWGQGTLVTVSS
light: B1 light
notes: PD1b sdAb fused by the E-linker to the C-terminus of heavy chain H0; also called H2 + L0
B5: bispecific antibody PD1b-E-HN (bispecific antibody, human IgG4 S228P, kappa)
heavy: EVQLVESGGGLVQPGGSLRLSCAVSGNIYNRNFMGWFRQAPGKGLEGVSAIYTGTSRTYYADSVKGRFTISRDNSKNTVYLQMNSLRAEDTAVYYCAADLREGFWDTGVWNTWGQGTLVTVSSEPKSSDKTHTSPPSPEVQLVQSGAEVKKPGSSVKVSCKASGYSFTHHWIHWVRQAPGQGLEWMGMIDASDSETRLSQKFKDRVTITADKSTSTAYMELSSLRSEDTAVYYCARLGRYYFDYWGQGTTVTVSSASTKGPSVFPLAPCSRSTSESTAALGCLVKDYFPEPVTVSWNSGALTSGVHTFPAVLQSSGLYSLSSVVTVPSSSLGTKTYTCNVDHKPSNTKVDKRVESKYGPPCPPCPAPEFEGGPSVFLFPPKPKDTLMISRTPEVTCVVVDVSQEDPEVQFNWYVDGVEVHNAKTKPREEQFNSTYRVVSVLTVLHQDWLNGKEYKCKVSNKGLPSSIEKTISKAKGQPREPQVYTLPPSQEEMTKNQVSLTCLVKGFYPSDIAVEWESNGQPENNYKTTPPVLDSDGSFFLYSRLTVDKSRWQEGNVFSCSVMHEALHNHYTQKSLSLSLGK
light: B1 light
notes: PD1b sdAb fused by the E-linker to the N-terminus of heavy chain H0; also called H4 + L0
B6: bispecific antibody PD1a-E-LN (bispecific antibody, human IgG4 S228P, kappa)
heavy: not shown
light: EVQLVESGGGLVQPGGSLRLSCAVSGNIYNRNFMGWFRQAPGKGREGVSAIYTGTSRTYYADSVKGRFTISRDNAKNTVYLQMNSLRPEDTAVYYCAADLRDGFWDTGVWNTWGQGTLVTVSSEPKSSDKTHTSPPSPEIVLTQSPATLSLSPGERATLSCRASENVGTYISWYQQKPGQAPRLLIYGASNRYTGIPARFSGSGSGTDFTLTISSLEPEDFAVYYCGESYGHLYTFGGGTKVEIKRTVAAPSVFIFPPSDEQLKSGTASVVCLLNNFYPREAKVQWKVDNALQSGNSQESVTEQDSKDSTYSLSSTLTLSKADYEKHKVYACEVTHQGLSSPVTKSFNRGEC
notes: PD1a sdAb fused by the E-linker to the N-terminus of light chain L0; also called L3 + H0
B7: bispecific antibody PD1b-E-LN (bispecific antibody, human IgG4 S228P, kappa)
heavy: not shown
light: B6 light with R45L, A75S, P88A, D102E
notes: PD1b sdAb fused by the E-linker to the N-terminus of light chain L0; also called L4 + H0
B8: bispecific antibody PD1a-E-LC (bispecific antibody, human IgG4 S228P, kappa)
heavy: not shown
light: EIVLTQSPATLSLSPGERATLSCRASENVGTYISWYQQKPGQAPRLLIYGASNRYTGIPARFSGSGSGTDFTLTISSLEPEDFAVYYCGESYGHLYTFGGGTKVEIKRTVAAPSVFIFPPSDEQLKSGTASVVCLLNNFYPREAKVQWKVDNALQSGNSQESVTEQDSKDSTYSLSSTLTLSKADYEKHKVYACEVTHQGLSSPVTKSFNRGECEPKSSDKTHTSPPSPEVQLVESGGGLVQPGGSLRLSCAVSGNIYNRNFMGWFRQAPGKGREGVSAIYTGTSRTYYADSVKGRFTISRDNAKNTVYLQMNSLRPEDTAVYYCAADLRDGFWDTGVWNTWGQGTLVTVSS
notes: PD1a sdAb fused by the E-linker to the C-terminus of light chain L0; also called L1 + H0
B9: bispecific antibody PD1b-E-LC (bispecific antibody, human IgG4 S228P, kappa)
heavy: not shown
light: B8 light with R274L, A304S, P317A, D331E
notes: PD1b sdAb fused by the E-linker to the C-terminus of light chain L0; also called L2 + H0

Molecular target: T1, human PD-1 (human, UniProt Q15116 25-288)
T1 construct: whole, on cells; also called PD-1 antigen
T1 sequence (Q15116 25-288): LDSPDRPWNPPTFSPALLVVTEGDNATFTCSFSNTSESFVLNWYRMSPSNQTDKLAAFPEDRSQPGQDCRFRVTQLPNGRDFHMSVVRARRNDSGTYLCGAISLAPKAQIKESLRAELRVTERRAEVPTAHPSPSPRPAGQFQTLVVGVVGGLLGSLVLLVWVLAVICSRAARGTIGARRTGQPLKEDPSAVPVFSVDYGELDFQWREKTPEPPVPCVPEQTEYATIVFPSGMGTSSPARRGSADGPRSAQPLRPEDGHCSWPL
Assay: flow cytometry on CHO-K1 cells expressing PD-1
Experimental: For the constructed series of bispecific antibodies, the affinity of these samples with antigens was measured by using a flow cytometer. […] Then, an antibody-antigen binding curve was generated based on the geometric mean, raw data of four parameters was plotted by using the […] Prism V6.02 software, and a best fitted value program was compiled to analyze EC₅₀.

Row | Binder | binding result
1 | B1 | binds
2 | B2 | binds
3 | B3 | binds
4 | B4 | binds
5 | B5 | binds
6 | B6 | binds
7 | B7 | binds
8 | B8 | binds
9 | B9 | binds
